Test [1] addresses 70S ribosome on biotinylated mRNA with the UAA stop codon in the A site (no release factor bound) (E. coli) (UniProt P0AG67). Briefly: single-molecule fluorescence in zero-mode waveguides (factor occupancy with intersubunit FRET); pre-elongated immobilised 70S with the stop codon in the A site; 75 nM Cy5-RF3, 20 nM Cy5.5-RF1, 4 mM GDPCP, polymix buffer, 20°C, no RRF or EF-G.
Test [2] addresses post-termination RF1-70S complex (Cy5.5-RF1 bound to the non-rotated 70S ribosome) (not stated | E. coli) (UniProt P0A7I0). The test is described as above.
Test [3] has as its target 70S ribosome on biotinylated mRNA with the UAA stop codon in the A site (no release factor bound) (E. coli) (UniProt P0AG67). Put plainly: single-molecule fluorescence in zero-mode waveguides (factor occupancy with intersubunit FRET); ribosome immobilised through biotinylated mRNA; Cy5.5-RF1 and Cy5-RF3 tracked together, 4 mM GTP, Tris-based polymix buffer pH 7.5, 20°C.
Test [4] deals with post-termination RF1-70S complex (Cy5.5-RF1 bound to the non-rotated 70S ribosome) (not stated | E. coli) (UniProt P0A7I0). Described as above.
Test [5] shares this target. Briefly: single-molecule fluorescence in zero-mode waveguides (factor occupancy with intersubunit FRET); pre-elongated immobilised 70S with the stop codon in the A site; 75 nM Cy5-RF3, 20 nM Cy5.5-RF1, 4 mM GDP, polymix buffer, 20°C.
The target is the same in test [6]. Put plainly: single-molecule fluorescence in zero-mode waveguides (factor occupancy with intersubunit FRET); Cy5-RF3 occupancy on the Cy5.5-RF1-bound non-rotated ribosome with 50% GDP (1:1 ratio of GTP:GDP); triple exponential fit.
Test [7] deals with 70S ribosome on biotinylated mRNA with the UAA stop codon in the A site (no release factor bound) (E. coli) (UniProt P0AG67). Put plainly: single-molecule fluorescence in zero-mode waveguides (factor occupancy with intersubunit FRET); as a4 (MF-UAA mRNA, Cy5.5-RF1, Cy5-RF3, GTP) but at 12°C.
For test [8] the target is unchanged. Briefly: single-molecule fluorescence in zero-mode waveguides (factor occupancy with intersubunit FRET); ribosome immobilised through biotinylated MF-UAA mRNA on Neutravidin; Cy5.5-RF1 or Cy5.5-RF2 with 0-200 nM dark RF3, RRF, EF-G, 4 mM GTP; Tris-based polymix buffer pH 7.5; 20°C.
In test [9] the target is 70S ribosome with bound wild-type (dark) RF3, rotated post-termination state (E. coli MG1655 K12 | E. coli) (UniProt P0A7I4). The description is as above.
Test [10] deals with 70S ribosome with bound Cy5-RF3, rotated post-termination state (E. coli MG1655 K12 | E. coli) (UniProt P0A7I4). Put plainly: single-molecule fluorescence in zero-mode waveguides (factor occupancy with intersubunit FRET); pre-elongated immobilised 70S with the stop codon in the A site; 75 nM Cy5-RF3, 20 nM Cy5.5-RF1, 4 mM GDPCP, polymix buffer, 20°C, no RRF or EF-G.
The target is the same in test [11]. Put plainly: single-molecule fluorescence in zero-mode waveguides (factor occupancy with intersubunit FRET); ribosome immobilised through biotinylated mRNA; Cy5.5-RF1 and Cy5-RF3 tracked together, 4 mM GTP, Tris-based polymix buffer pH 7.5, 20°C.
Test [12] addresses 70S ribosome on biotinylated mRNA with the UAA stop codon in the A site (no release factor bound) (E. coli) (UniProt P0AG67). Put plainly: single-molecule fluorescence in zero-mode waveguides (factor occupancy with intersubunit FRET); Cy5.5-RF1 and Cy5-RF3 with GTP and the antimicrobial peptide Api137 added; occupancy limited by Cy5.5 photobleaching and movie time (6 min).
Test [13] has the same target. Put plainly: single-molecule fluorescence in zero-mode waveguides (factor occupancy with intersubunit FRET); as a1 with Cy5.5-RF1 and dark RF3, 4 mM GTP, but at 30°C.
For test [14], the target named is 70S ribosome with bound wild-type (dark) RF3, rotated post-termination state (E. coli MG1655 K12 | E. coli) (UniProt P0A7I4). The test is described as above.
Test [15] deals with 70S ribosome on biotinylated mRNA with the UAA stop codon in the A site (no release factor bound) (E. coli) (UniProt P0AG67). Briefly: single-molecule fluorescence in zero-mode waveguides (factor occupancy with intersubunit FRET); Cy5.5-RF1 in the absence of RRF, with and without RF3; first-bound and rebound RF1 events on the immobilised ribosome (Supplementary Figure S2); temperature not given.

The target of test [16] is 70S ribosome with bound wild-type (dark) RF3, rotated post-termination state (E. coli MG1655 K12 | E. coli) (UniProt P0A7I4). The test is described as above.
Test [17] addresses 70S ribosome with bound Cy5-RF3, rotated post-termination state (E. coli MG1655 K12 | E. coli) (UniProt P0A7I4). Put plainly: single-molecule fluorescence in zero-mode waveguides (factor occupancy with intersubunit FRET); as a4 (MF-UAA mRNA, Cy5.5-RF1, Cy5-RF3, GTP) but at 12°C.

As a reminder, the koff is the rate constant with which the complex falls apart. Read a low koff as a long-lived complex. A word on the kon: it is the rate constant with which the complex forms. Low readings indicate slow association, high ones fast association. In the case of “Cy5-RF3 (ybbR-tagged RF3 labelled with Cy5-CoA) (from UniProt P0A7I4 1-529) (natural protein)”, the koff in test [1] is 0.0164 s⁻¹; in test [3], 4 s⁻¹. Besides, the k3off1 (sampling mode, fast phase of a double exponential) is 1.1 s⁻¹ in test [2], 1.3 s⁻¹ in test [4] and 4.6 s⁻¹ in test [5]. Besides, the k3off2 (sampling mode, slow phase of a double exponential) is 0.18 s⁻¹ in test [2], 0.3 s⁻¹ in [4] and 0.25 s⁻¹ in test [5]. Besides, the kon worked out at 2e+06 M⁻¹ s⁻¹ in test [2], 2.3e+06 M⁻¹ s⁻¹ in test [4] and 2e+06 M⁻¹ s⁻¹ in [5]. Also, in test [6], the dissociation rate of the slowest phase of a triple exponential amounted to 0.3 s⁻¹. In test [7], the fold slow-down of dissociation at 12°C against 20°C turned out to be 21 fold.
In test [8], “Cy5.5-labeled RF1 (from UniProt P0A7I0 1-360) (natural protein)” registered a kiAR- (spontaneous and simultaneous dissociation and ribosome rotation from the post-termination ribosome) of 0.027 s⁻¹; a kon of 2.1e+07 M⁻¹ s⁻¹; a mean dwell time on the terminating ribosome in the absence of RF3 (tau 1BD-) of 66 s. In [9], the k1RD+ (single RF1 binding event in the presence of RRF) was determined as 0.87 s⁻¹ and the koff is 0.76 s⁻¹. For the same substance, the koff in test [10] came out at 0.14 s⁻¹. Further, the koff in test [11] is 0.69 s⁻¹. The same substance gave an occupancy time with Api137 (photobleaching and movie-time limit) in test [12] of 300 s. The substance further came in with a kiAR- (spontaneous and simultaneous dissociation and ribosome rotation from the post-termination ribosome) in [13] of 0.072 s⁻¹. For the same substance, the koff in test [14] came to 2.5 s⁻¹. In [15], this substance had a kiAR- (first-bound ribosomes, no RRF) of 0.04 s⁻¹ and a kiAR- (rebound ribosomes, no RRF) of 0.08 s⁻¹. In [16], this substance gave a k1RD+ (first-bound RF1, no RRF) of 0.77 s⁻¹ and a k1RD+ (rebound RF1, no RRF) of 1 s⁻¹. Also, the fold slow-down of dissociation at 12°C against 20°C in [17] was 2.6 fold.
As to “Cy5.5-labeled RF2 (from UniProt P07012 1-365) (natural protein)”, in test [8], the kiAR- (spontaneous and simultaneous dissociation and ribosome rotation from the post-termination ribosome) turned out to be 0.04 s⁻¹; the mean dwell time on the terminating ribosome in the absence of RF3 (tau 2BD-) was determined as 38 s. Further, the koff in [9] came out at 3.5 s⁻¹.
